US20260070974A1 (NONA BIOSCIENCES SUZHOU, published 2026)
“And” between values parts separate entries of the source, which are not always exact repeats. Equal values may be shown once.

T1: cynomolgus monkey Siglec-15-his protein (Acrobiosystems, Cat #: SG5-C52H6) (cynomolgus monkey, UniProt Q6ZMC9 20-263 (human entry))
T1 construct: Bought protein; also called cynomolgus monkey Siglec-15 protein; not shown: his tag
T1 chain: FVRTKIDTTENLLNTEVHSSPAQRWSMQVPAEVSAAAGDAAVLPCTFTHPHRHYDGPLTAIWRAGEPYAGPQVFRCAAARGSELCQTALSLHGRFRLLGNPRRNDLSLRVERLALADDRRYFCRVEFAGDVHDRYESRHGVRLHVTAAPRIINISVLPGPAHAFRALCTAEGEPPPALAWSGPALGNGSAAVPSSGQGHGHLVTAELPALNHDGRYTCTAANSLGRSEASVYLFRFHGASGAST

T2: human Siglec-15 ECD-his protein (Acrobiosystems, Cat #: SG5-H52H3) (human, UniProt Q6ZMC9 20-263)
T2 construct: Bought protein; only its extracellular domain stood in the assay; also called human Siglec-15 protein; recombinant human Siglec-15 protein; not shown: his tag
T2 sequence: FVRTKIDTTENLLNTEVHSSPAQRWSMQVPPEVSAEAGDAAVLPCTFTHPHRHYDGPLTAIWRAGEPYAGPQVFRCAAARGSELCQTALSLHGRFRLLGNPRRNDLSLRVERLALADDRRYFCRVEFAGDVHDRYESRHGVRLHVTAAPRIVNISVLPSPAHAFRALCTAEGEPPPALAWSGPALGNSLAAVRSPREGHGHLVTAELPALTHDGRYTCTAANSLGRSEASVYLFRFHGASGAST


What was measured:
[1] = target: T1, cynomolgus monkey Siglec-15-his protein …; experiment: ELISA, coated cynomolgus monkey Siglec-15-his
Protocol: (§1) 1 g/mL cynomolgus monkey Siglec-15-his protein (Acrobiosystems, Cat #: SG5-C52H6) dissolved in PBS was added to an ELISA plate at 100 μL/well for coating and the plate was incubated overnight at 4° C. The ELISA plate was then blocked with PBST (PBS+0.05% Tween 20) containing 2% BSA at 200 μL/well and incubated at 37° C. for 1 h. The ELISA plate was washed 4 times with PBST. The anti-Siglec-15 antibody diluted in a gradient (5-fold dilution, starting concentration: 6.67 nM) was added to the ELISA plate at 100 µL/well and the plate was incubated at 37° C. for 1 h. The ELISA plate was washed 4 times with PBST. The goat anti-human IgG (H+L)-HRP (1:5000, Jackson, Cat #: 109-035-088) was added at 100 μL/well and the plate was incubated at 37° C. for 1 h. The ELISA plate was washed 4 times with PBST. The TMB substrate (Biopanda, Cat #: TMB-S-003) was added at 100 μL/well, and the plate was incubated at room temperature for 5 min, and then the stop buffer (Solarbio, Cat #: C1058) was added at 100 μL/well to stop the reaction.

[2] = target: T3, mouse Siglec-15-his protein (Acrobiosystems, Cat #: SG5-M52H7) (mouse); experiment: ELISA, coated mouse Siglec-15-his
T3 construct: Bought protein; also called mouse Siglec-15 protein
Protocol: as §1, with “[…] mouse” for “g/mL cynomolgus monkey”, “#: SG5-M52H7)” for “#: SG5-C52H6)”, “100 μL/well” for “100 µL/well”, “Jackson, Cat:” for “Jackson, Cat #:”, “(Biopanda, Cat:” for “(Biopanda, Cat #:”

[3] = target: T2, human Siglec-15 ECD-his protein …; experiment: BLI (Octet RED96), antibody on AHC sensor, Siglec-15 ECD-his as analyte
Protocol: Recombinant Human Siglec-15 Protein Affinity was determined using an Octet RED96 instrument (ForteBio) and an anti-human IgG Fc capture sensor (AHC biosensor, ForteBio, Cat #: 18-5060) according to the detailed procedures and methods provided by the manufacturer. Specifically, candidate antibodies were each diluted to a final concentration of 6 µg/mL and directly immobilized on AHC biosensors for kinetic measurements. The antigenic protein Siglec-15 ECD-his protein (Acrobiosystems, Cat #: SG5-H52H3) was diluted with 10× Kinetics buffer to 3 concentrations of 60 nM, 30 nM, and 15 nM separately and injected as the analyte for 120 s with a dissociation time of 400 s and then subjected to regeneration with 10 mM glycine HCl (pH 1.5) for 15 s. The association rate (kon) and dissociation rate (kdis) were calculated using a simple one-to-one Languir binding model (Octet Red96 data analysis software). The equilibrium dissociation constant (kD) was calculated as the ratio of kdis/kon.

| EC50 [1] | EC50 [2] | Kd [3] | koff [3] | kon [3] | Binder |
| --- | --- | --- | --- | --- | --- |
| 0.09 nM | 0.051 nM | < 0.001 nM | < 1e-07 s⁻¹ | 368000 M⁻¹ s⁻¹ and 292000 M⁻¹ s⁻¹ | PR301286 (antibody, human IgG1, kappa, V domains shown, Parent of the PTM variants PR301286-1, -3, -5, -6, -7) VH: QVQLVESGGGVVQPGKSLRLSCAASGFTFSSYGMHWVRQAPGKGLEWVAVIWIDGSNRYYAASVKGRFTISRDNSKNTLYLQMNSLRAEDTAVYYCTRGYGDYAYVMDVWGQGASVTVSS VL: DIVMTQSPLSLPVTPGEPASISCRSSQSLLPGNGYNYLDWYLQKPGQSPQLLIYLGSNRASGVPDRFSGSGSGTDFTLKISRVEAEDVGIYYCMQALQSPLTFGGGTKVEIKR |
| 0.025 nM and 0.012 nM | 0.019 nM and 0.023 nM | 0.13 nM and 0.293 nM | 9.5e-05 s⁻¹ and 0.000182 s⁻¹ | 730000 M⁻¹ s⁻¹ and 621000 M⁻¹ s⁻¹ | PR300066 (Tab) (antibody, human IgG1, kappa, V domains shown, variable region from clone 5G12 of WO 2018/057735A1, on human IgG1/kappa constant regions; also called 5G12) VH: QVQLQQPGAELVKPGASVKMSCKASGYTFTSYWITWVIQRPGQGLEWIGDIYCGSDTMHYNEKFKNKATLTVDTSSSTAYMQLSSLTSEDSAVYYCARWWDYGSSYDYFDYWGQGTTLTVSS VL: DIKMTQSPSSMYASLGERVTITCKASQDINSYLSWFQQKPGKSPKTLIYRANRLVDGVPSRFSGSGSGQDYSLTISSLEYEDMGIYYCLQYDEFPYTFGGGTKLEIKR |
| 0.104 nM | 0.036 nM | 0.173 nM | 6.47e-05 s⁻¹ | 373000 M⁻¹ s⁻¹ | PR301289 (antibody, human IgG1, kappa, V domains shown, Parent of the PTM variants PR301289-1 and -2) VH: QVQLVQSGAEVKKPGASVKVSCRASGYTFTSYDINWVRQATGQGLEWMGWMNPHSGDTGYAQNFQGRVTMTWNTSISTAYMELSSLRSEDTAVYYCARRRVGVYYYGMDVWGQGTTVTVSS VL: ENVLTQSPGTLSLSPGERATLSCRASQSVSSSYFGWYQQKPGQAPRLLIYGASSRATGIPDRFSGSGSGTDFTLTISRLEPEDFAVYYCQQYGSSPITFGQGTRLEIKR |
| 0.038 nM |  | < 0.001 nM | < 1e-07 s⁻¹ | 529000 M⁻¹ s⁻¹ | PR301285 (antibody, human IgG1, kappa, V domains shown) VH: QVQLQESGPGLVKPSETLSLTCTVSGGSMISYYWSWLRQPPGKGLEWIGYIYYSGNTNYNPSLKSRITIAVDTSKNQFSLKLNSVTAADTAVYYCARERELHPYYFDYWGQGTLVTVSS VL: DIQLTQSPSFLSASVGDRVTITCRASQGIDNYLAWYQQKPGKAPKVLIYAASTLQSGVPSRFSGSGSGTEFTLTISSLQPEDFATYYCQQLNSYPLTFGGGTKVEIKR |
